Laboratory results from patent US20060270591A1, “Androgen receptor coregulators” (priority 2002, published 2006).
Each block holds one molecule with its values, some of them ahead of it.

Columns and labels:
PR = biological target: T1, PR (Homo sapiens, UniProt P06401); assay: PR transactivation reporter gene assay (Example 2); type: cell-based
T1 construct: expressed in transfected cells; host or cells: DU145, PC-3
T1 sequence (P06401 1-933): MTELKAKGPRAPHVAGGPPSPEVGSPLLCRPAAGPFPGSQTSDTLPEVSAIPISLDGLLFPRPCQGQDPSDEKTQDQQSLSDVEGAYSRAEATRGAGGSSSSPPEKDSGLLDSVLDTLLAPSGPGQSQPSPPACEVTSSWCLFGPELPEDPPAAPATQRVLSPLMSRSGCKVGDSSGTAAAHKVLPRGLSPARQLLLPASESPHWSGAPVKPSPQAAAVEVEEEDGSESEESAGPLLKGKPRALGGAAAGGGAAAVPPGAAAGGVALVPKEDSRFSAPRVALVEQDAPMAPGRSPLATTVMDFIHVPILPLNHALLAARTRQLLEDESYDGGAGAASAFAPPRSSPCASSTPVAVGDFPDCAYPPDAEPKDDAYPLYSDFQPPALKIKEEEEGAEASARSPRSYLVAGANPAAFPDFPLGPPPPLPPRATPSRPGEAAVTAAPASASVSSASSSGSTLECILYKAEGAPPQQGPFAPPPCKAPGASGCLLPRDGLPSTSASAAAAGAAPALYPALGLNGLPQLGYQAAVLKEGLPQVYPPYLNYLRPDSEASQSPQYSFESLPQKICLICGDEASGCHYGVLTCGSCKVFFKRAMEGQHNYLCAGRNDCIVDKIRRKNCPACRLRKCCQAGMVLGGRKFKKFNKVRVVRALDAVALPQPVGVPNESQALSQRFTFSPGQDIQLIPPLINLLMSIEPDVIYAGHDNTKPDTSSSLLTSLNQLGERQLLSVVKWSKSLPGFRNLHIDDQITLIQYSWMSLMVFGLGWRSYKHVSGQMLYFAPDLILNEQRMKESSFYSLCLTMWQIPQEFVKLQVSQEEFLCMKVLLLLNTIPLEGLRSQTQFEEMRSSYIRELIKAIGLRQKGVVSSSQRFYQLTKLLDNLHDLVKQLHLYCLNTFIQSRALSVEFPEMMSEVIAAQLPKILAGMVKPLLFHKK
Method: (§1) 12. […] PC-3 (A) or DU145 (B) cells were transfected with MMTV-CAT (2.5 μg), steroid receptor expression plasmid (AR, PR, or GR; 1.0 μg for PC-3 and 0.75 μg for DU145), and pSG5-C′-ARA54 (C′) or pSG5-mt-ARA54 (mt) (8.0 μg for PC-3 and 6.75 μg for DU145), with (for DU145) or without (for PC-3) pSG5-fl-ARA54 (2.25 μg). The total amount of DNA was adjusted to 12.5-13.25 μg with pSG5 for each transfection. […] The CAT activity is presented relative to that of vector alone with cognate ligand in each panel (black bars; set as 100%). Values represent the mean±SD of at least three determinations.
(§2) 394. The human prostate cancer cell lines, LNCaP, PC-3, and DU145, were maintained in Dulbecco's minimum essential medium (DMEM) containing 5% fetal calf serum (FCS). Transfections using the calcium phosphate precipitation method and chloramphenicol acetyltransferase (CAT) and luciferase (Luc) assays were performed as previously described (Miyamoto et al. (1998) Proc. Natl. Acad. Sci. U.S.A. 95, 7379-7384; Yeh et al. (1999) Endocrine 11, 195-202; Miyamoto et al. (1998) Proc. Natl. Acad. Sci. U.S.A. 95, 11083-11088). Briefly, 1-4×10^5 cells were plated on 35-mm or 60-mm dishes 24 h before adding the precipitation mix containing a CAT or Luc reporter gene and a β-galactosidase expression plasmid (pCMV-β-gal) as an internal control for normalization of transfection efficiency. The medium was changed to phenol-red-free DMEM with 5% charcoal-stripped FCS 1 h before transfection. In each experiment, the total amount of transfected DNA per dish was maintained as a constant by addition of empty expression vector (pSG5 or pVP16, as appropriate). […] The cells were then harvested and whole cell extracts were used for CAT or Luc assay. The CAT activity was quantitated with a PhosphorImager (Molecular Dynamics). The Luc assay was determined using a Dual-Luciferase Reporter Assay System (Promega) and luminometer.

GR = biological target: T2, GR (Homo sapiens, UniProt P04150); assay: GR transactivation reporter gene assay (Example 2); type: cell-based; design: expressed in transfected cells; host or cells: PC-3
T2 sequence (P04150 1-777): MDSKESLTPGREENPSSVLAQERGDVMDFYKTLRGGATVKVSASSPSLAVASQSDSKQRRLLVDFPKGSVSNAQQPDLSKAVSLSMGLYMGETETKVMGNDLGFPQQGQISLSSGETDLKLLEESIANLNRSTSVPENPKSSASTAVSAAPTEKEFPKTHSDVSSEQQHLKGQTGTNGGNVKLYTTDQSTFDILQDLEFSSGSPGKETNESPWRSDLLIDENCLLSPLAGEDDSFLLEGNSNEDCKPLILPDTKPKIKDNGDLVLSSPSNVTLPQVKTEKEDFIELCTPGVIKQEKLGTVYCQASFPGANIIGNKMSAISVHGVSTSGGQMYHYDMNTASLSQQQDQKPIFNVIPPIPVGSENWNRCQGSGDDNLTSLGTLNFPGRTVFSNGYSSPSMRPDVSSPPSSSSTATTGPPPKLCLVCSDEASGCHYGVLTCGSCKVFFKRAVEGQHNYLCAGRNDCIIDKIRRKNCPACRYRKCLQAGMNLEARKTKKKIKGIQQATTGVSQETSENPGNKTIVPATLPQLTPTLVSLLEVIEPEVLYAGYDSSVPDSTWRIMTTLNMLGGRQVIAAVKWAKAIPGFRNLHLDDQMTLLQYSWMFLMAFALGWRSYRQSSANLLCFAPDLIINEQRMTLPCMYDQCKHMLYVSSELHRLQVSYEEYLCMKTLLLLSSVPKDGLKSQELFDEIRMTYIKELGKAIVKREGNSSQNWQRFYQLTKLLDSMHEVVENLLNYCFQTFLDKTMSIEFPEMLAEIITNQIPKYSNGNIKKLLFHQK
Method: as §1, §2

- induction of PR transcription (PR; DU145 cells, cotransfected with PR): 2.9 fold
- induction of GR transcription activity (GR; DU145 cells, cotransfected with GR): 1.6 fold
B1: ARA54: 54 kDa protein that interacts with AR in an androgen-dependent manner; AR coactivator (protein)
chain: MSSEDREAQEDELLALASIYDGDEFRKAESVQGGETRIYLDLPQNFKIFVSGNSNECLQNSGFEYTICFLPPLVLNFELPPDYPSSSPPSFTLSGKWLSPTQLSALCKHLDNLWEEHRGSVVLFAWMQFLKEETLAYLNIVSPFELKIGSQKKVQRRTAQASPNTELDFGGAAGSDVDQEEIVDERAVQDVESLSNLIQEILDFDQAQQIKCFNSKLFLCSICFCEKLGSECMYFLECRHVYCKACLKDYFEIQIRDGQVQCLNCPEPKCPSVATPGQVKELVEAELFARYDRLLLQSSLDLMADVVYCPRPCCQLPVMQEPGCTMGICSSCNFAFCTLCRLTYHGVSPCKVTAEKLMDLRNEYLQADEANKRLLDQRYGKRVIQKALEEMESKEWLEKNSKSCPCCGTPIEKLDGCNKMTCTGCMQYFCWICMGSLSRANPYKHFNDPGSPCFNRLFYAVDVDDDIWEDEVED

- effect on fl-ARA54-induced PR transcription (PR; DU145 cells): little effect
- effect on PR-mediated transactivation (PR; PC-3 cell line, presence of P): only a marginal effect
- effect on fl-ARA54-induced GR transactivation (GR; DU145 cells): little effect
- effect on GR transactivation (GR; PC-3 cell line): only marginally repressed
B2: C′-ARA54: C-terminal region (amino acids 361-474) of ARA54 (protein)
chain: RNEYLQADEANKRLLDQRYGKRVIQKALEEMESKEWLEKNSKSCPCCGTPIEKLDGCNKMTCTGCMQYFCWICMGSLSRANPYKHFNDPGSPCFNRLFYAVDVDDDIWEDEVED
modifications: Homo sapien
notes: C-terminal region (amino acids 361-474) of ARA54
